These are literature values, as cited in paper PMC4752257.

pKd: −log10 of the molar value.

The data set concerns the target IL-4R alpha (Homo sapiens) (UniProt P24394).
Sequence of UniProt P24394 (P24394 26-232): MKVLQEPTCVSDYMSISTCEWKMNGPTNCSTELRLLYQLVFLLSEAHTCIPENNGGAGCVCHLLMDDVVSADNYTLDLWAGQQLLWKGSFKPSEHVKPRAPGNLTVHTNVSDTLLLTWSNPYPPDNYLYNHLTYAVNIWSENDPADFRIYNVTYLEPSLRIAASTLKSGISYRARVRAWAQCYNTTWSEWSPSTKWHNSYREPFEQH

In the case of IL-4 (from UniProt P05112), the pKd is 9.22.
